For assay [1], the target named is T1, BSA (Takara) (Bos taurus, UniProt P02769).
T1 construct: commercial protein
Description: ELISA, antigen coated on the plate, detection with goat anti-human IgG-HRP, absorbance at 450 nm. For orientation: An ELISA detects its analyte on a solid surface through an enzyme-linked reagent.

Assay [2] addresses c-Met on human cells (Caki-1 cells, HUVECs, human primary hepatocytes) (human, UniProt P08581 25-1390). Put plainly: cell-based or functional assay.
Assay [3] addresses T2, mouse c-Met antigen (Biacore analyte) (mouse, UniProt P16056 25-931, limits assumed). Put plainly: SPR (Biacore), antibody immobilised on a CM5 chip, c-Met antigen injected. The method, then: (§1) Binding affinity of the IGTML4-4 antibody constructed in Example 1 to c-Met antigens was analyzed using a Biacore (available from GE Healthcare).
Background: Surface plasmon resonance follows binding to a sensor surface in real time, without labels.

Assay [4] concerns the target T3, human c-Met antigen (Biacore analyte) (human, UniProt P08581 25-932, limits assumed). The assay is described as above. The protocol:
as §1

For assay [5], the target named is T2, mouse c-Met antigen (Biacore analyte). Described as above. The method, then:
as §1
This is another data set of the same source.

The target of assay [6] is T3, human c-Met antigen (Biacore analyte). Described as above. The method, then: as §1
This is another data set of the same source.

Where two headings read alike, the source gives them in different places.

The term Kd denotes a measure of binding affinity in units of concentration. As a reminder, the koff is the rate constant with which the complex falls apart. A lower koff goes with a long-lived complex. By kon is commonly meant the second-order rate constant of association.

T2 sequence (P16056 25-931 limits assumed): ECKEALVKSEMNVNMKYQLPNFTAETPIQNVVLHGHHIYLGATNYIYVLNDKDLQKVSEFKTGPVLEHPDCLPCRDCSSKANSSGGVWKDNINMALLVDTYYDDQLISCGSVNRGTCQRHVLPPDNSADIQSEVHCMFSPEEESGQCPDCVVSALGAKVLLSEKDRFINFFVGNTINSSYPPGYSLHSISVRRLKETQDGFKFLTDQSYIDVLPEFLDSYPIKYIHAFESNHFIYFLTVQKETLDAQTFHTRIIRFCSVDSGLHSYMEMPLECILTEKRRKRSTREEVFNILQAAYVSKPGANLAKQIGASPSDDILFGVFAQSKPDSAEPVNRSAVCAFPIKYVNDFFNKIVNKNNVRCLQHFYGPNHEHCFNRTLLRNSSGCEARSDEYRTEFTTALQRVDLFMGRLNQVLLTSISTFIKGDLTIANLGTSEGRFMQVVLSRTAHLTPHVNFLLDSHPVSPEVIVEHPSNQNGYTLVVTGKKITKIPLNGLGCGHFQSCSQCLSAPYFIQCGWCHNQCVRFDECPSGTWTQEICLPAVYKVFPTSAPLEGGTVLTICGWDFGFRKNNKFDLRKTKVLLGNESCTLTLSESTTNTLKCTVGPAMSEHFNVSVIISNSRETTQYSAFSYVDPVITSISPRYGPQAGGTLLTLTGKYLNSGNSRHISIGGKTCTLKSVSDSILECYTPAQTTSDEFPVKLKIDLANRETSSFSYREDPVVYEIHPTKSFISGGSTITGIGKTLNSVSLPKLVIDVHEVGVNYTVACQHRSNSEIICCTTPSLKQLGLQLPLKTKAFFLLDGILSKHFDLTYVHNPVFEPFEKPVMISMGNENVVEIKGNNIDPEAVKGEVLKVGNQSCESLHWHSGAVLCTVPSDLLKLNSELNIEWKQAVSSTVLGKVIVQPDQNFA
T3 sequence (P08581 25-932 limits assumed): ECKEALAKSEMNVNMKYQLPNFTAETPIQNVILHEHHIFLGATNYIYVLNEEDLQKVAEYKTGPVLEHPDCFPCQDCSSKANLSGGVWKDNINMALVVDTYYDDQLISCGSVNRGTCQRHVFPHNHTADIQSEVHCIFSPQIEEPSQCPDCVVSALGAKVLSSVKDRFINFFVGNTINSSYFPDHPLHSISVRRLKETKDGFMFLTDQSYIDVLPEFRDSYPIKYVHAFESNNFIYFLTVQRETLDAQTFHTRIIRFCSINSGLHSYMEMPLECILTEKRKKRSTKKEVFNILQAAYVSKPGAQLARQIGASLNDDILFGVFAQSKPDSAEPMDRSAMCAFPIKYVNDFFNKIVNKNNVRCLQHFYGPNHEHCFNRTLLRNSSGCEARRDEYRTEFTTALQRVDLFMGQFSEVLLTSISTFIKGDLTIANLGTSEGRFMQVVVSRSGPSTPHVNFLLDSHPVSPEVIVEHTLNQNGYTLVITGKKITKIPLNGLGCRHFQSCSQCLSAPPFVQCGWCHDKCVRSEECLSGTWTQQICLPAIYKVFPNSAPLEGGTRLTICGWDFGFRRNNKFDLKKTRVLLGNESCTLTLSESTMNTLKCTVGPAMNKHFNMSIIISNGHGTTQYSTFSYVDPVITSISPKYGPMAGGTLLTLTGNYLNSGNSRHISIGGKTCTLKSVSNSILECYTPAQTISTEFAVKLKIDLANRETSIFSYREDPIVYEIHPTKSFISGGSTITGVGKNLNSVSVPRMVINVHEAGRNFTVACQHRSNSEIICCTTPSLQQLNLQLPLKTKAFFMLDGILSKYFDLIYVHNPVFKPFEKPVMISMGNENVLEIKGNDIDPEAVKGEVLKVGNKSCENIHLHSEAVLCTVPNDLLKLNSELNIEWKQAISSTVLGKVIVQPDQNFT
T1 sequence (P02769 25-607 limits assumed): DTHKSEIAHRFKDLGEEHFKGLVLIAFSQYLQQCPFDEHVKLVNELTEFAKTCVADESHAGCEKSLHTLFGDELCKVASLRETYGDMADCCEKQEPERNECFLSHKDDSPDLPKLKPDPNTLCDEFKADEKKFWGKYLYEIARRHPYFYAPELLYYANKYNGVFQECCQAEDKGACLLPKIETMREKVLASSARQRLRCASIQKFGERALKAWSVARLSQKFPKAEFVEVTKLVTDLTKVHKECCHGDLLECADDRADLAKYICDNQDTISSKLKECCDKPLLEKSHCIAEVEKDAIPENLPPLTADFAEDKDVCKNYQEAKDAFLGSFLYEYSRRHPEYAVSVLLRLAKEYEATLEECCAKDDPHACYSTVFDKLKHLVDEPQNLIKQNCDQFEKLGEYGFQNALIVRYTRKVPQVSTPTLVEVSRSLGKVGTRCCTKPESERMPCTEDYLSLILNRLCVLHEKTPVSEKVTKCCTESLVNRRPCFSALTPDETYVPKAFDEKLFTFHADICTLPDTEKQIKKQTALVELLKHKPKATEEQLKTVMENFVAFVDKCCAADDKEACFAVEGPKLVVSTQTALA
Chain of c-Met on human cells (Caki-1 cells, HUVECs, human primary hepatocytes) (P08581 25-1390): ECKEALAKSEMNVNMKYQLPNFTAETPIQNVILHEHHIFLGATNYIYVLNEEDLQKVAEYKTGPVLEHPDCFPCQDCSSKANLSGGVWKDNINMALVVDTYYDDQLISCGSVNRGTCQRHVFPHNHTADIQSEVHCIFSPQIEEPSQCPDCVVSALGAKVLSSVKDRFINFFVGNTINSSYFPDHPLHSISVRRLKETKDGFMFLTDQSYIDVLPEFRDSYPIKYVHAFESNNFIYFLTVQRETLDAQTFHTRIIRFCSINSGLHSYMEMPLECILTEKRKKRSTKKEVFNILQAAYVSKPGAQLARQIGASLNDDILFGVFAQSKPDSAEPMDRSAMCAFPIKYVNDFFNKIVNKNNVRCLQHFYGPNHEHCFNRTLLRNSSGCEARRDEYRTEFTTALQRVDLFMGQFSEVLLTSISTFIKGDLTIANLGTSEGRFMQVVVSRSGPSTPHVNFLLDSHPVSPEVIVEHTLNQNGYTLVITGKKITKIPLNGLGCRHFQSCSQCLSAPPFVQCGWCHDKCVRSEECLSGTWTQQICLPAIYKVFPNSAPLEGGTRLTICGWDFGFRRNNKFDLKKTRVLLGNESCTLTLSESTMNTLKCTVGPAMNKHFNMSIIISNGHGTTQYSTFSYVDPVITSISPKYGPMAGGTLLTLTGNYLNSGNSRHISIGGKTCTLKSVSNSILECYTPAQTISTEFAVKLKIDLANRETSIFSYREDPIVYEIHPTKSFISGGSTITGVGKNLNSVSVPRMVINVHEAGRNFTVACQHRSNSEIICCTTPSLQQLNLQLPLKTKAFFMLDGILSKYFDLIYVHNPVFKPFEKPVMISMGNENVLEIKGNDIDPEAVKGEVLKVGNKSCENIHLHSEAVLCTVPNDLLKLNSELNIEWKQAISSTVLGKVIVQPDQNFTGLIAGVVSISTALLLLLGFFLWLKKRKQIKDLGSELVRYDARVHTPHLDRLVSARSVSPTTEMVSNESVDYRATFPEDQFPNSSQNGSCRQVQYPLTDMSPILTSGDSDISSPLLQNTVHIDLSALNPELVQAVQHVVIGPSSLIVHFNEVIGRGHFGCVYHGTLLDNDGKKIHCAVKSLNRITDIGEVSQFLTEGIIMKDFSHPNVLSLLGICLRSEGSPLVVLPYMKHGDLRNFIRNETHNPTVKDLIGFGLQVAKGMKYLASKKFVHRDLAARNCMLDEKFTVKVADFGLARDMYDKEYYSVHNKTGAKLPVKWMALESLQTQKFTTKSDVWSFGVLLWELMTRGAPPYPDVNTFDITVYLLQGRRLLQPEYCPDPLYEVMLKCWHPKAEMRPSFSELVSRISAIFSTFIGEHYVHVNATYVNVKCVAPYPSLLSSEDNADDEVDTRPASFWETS

B1: IGTML4-4 antibody (antibody, V domains shown)
VH: QVQLLQSGGGLVQPGGSLRVSCAASGFRFSMYVMTWVRQAPGKGLEWVSEISASGASTYYADSVKGRFTMSRDNSKNTVFLQMNSLRVEDTAVYYCARAYRYGMDVWGQGTMVTVSS
VL: DIVMTQSPSSVSASVGDRVTLTCRASQNIGSWLAWYQQKPGNAPKLLIYRASNLRSGVPSRFSGSGSGTDFTLTISSLQPEDFATYFCQQATIFPLTFGGGTRVDIKR
notes: also called anti c-Met antibody
As to B1, the binding result in assay [1] is reported as “no binding”. In addition, the “degree of Akt phosphorylation relative to the 5D5 antibody (Caki-1 cells, 5 µg/ml antibody, phospho-AKT1 Ser473 sandwich ELISA)” value in assay [2] is about 84%. The Kd was under 1 nM in assay [3], under 1 nM in assay [4], 0.304 nM in assay [5] and 0.398 nM in assay [6]. The koff came out at 0.000168 s⁻¹ in assay [5] and 0.000188 s⁻¹ in assay [6]. For the same molecule, the kon in assay [5] came out at 553000 M⁻¹ s⁻¹; in assay [6] it was 471000 M⁻¹ s⁻¹.
